This series has as its system activated T cells. Put plainly: Fixed-ratio combination cytotoxicity assay, ruxolitinib + LH10, c43B6 or h9F9. It counts as cell-based. Conditions: antibody with cross-linker. The protocol: PBMCs were obtained from peripheral blood of healthy donors. Isolation was performed by density centrifugation of blood on Ficoll (GE Healthcare, Cat #17-1440-03). The harvested PBMCs were used for the generation of activated T cells by incubating with PHA (3 μg/mL, SIGMA, Cat: L2769-10 mg) in RPMI-1640 medium (10% FBS, 1% Penicillin/Streptomycin and 2-Mercaptoethanol) for 2 days, followed by maintenance in medium containing recombinant human Interleukin-2 (5 ng/mL, R&D Systems, Cat. #202-IL-050) for an additional between about 4˜6 days.
In addition to 15A7H, anti-PSGL-1 antibodies LH10, c43B6 and h9F9 were tested for the ability to induce cell death in activated T cells. The purpose of this study was to determine whether apoptosis inducing anti-PSGL-1 antibodies plus ruxolitinib would result in a better cytotoxic effect on activated T cells. The combinatorial effect was evaluated using Chou-Talalay median effect analysis using fixed ratios of antibodies and ruxolitinib in cytotoxicity assays. […]
Cell apoptosis was determined as described in Example 1, and the combinatorial drug effect combination indexes (CI) were analyzed using CalcuSyn (Biosoft, Ferguson, MO, USA), which allows automated simulation of synergism or antagonism, where CI<1 indicates synergy, CI=1 indicates additivity, and CI>1 indicates antagonism.

B1: h9F9: anti-PSGL-1 antibody; heavy chain SEQ ID NO:35, light chain SEQ ID NO:39 (antibody)
heavy: EVQLVESGGGLVQPGGSLKLSCAASGFTFNTNAMNWVRQAPGKGLEWVARIRSKSNNYATYYADSVKDRFTISRDDSKSIIYLQMNSLKTEDTGIYYCVRGGSYWYFDVWGTGTTVTVSSASTKGPSVFPLAPCSRSTSESTAALGCLVKDYFPEPVTVSWNSGALTSGVHTFPAVLQSSGLYSLSSVVTVPSSSLGTKTYTCNVDHKPSNTKVDKRVESKYGPPCPPCPAPPVAGGPSVFLFPPKPKDTLMISRTPEVTCVVVDVSQEDPEVQFNWYVDGVEVHNAKTKPREEQFNSTYRVVSVLTVLHQDWLNGKEYKCKVSNKGLPSSIEKTISKAKGQPREPQVYTLPPSQEEMTKNQVSLTCLVKGFYPSDIAVEWESNGQPENNYKTTPPVLDSDGSFFLYSRLTVDKSRWQEGNVFSCSVMHEALHNHYTQKSLSLSLG
light: DVIMTQSPLSLPVSLGQPASISCRSSQSIVNSNGNTYLEWYLQKPGQSPRLLIYKVSNRFSGVPDRFSGSGSGTDFTLKISRVEAEDVGVYYCFQGSHVPWTFGGGTKLEIKRTVAAPSVFIFPPSDEQLKSGTASVVCLLNNFYPREAKVQWKVDNALQSGNSQESVTEQDSKDSTYSLSSTLTLSKADYEKHKVYACEVTHQGLSSPVTKSFNRGEC
For B1, the “cytotoxicity ability in activated T cells” value is on record as “had cytotoxicity ability”.

The values above are taken from US12290565B2, “Methods of using anti-PSGL-1 antibodies in combination with JAK inhibitors to treat T-cell mediated inflammatory diseases or cancers” (AltruBio Inc., priority 2021, dated 2025).
